Earlier results on one substance are cited in article PMC10839879.

pKd: −log10 of the molar value.

In this data set the target is RNH1 (Homo sapiens) (UniProt P13489).
Chain of UniProt P13489 (P13489 2-461): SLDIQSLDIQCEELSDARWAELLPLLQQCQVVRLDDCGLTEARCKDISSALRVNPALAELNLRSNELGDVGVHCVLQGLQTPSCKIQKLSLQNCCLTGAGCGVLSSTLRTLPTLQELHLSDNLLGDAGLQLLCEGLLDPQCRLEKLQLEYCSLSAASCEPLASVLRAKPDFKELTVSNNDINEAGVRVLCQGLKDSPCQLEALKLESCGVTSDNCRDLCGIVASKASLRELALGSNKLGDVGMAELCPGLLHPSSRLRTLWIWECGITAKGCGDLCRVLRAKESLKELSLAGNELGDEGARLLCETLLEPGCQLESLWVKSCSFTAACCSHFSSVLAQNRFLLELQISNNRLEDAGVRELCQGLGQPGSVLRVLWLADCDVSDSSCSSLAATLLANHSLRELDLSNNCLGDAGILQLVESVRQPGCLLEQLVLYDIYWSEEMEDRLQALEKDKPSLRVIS

As usually defined, the pKd is the Kd on a negative log10 scale, so that one unit is a factor of ten. For the substance angiogenin (from UniProt P03950), the pKd was 15.00.
